In this series the target is ALYREF-ΔRRM (human, UniProt Q86V81 1-257, del108-179). Description: EMSA; 35 mM Tris-HCl pH 7.5, 1 mM DTT, 100 ug/ml BSA, 1 mM MgCl2, 100 mM KCl, 10 min at 30 C; 5 nM nucleic acid; gel at 4 C. Conditions: protein: recombinant; tags: His6; label: 32P; three-strand 5' RNA flap; RNA and DNA2 share the complement on DNA1. A general note: A gel shift assay detects complexes by their altered migration in electrophoresis.

Experimental findings from publication PMC11665464, “The molecular chaperone ALYREF promotes R-loop resolution and maintains genome stability” are described below.

B1: 5' RNA-DNA flap (R-Flap, migratable R-loop mimic) (mixed)
DNA 1: ACGCTGCCGAATTCTACCAGTGCCTTGCTAGGACATCTTTGCCCACCTGGTGGTGGGACC
DNA 2: GGTCCCACCACCAGGTGGGCAAAGATGTCCCAGCAAGGCACTGGTAGAATTCGGCAGCGT
RNA: GGUCCCACCACCAGGUGGGCAAAGAUGUCC
In the case of B1, the binding result was “binds”.
